Results as given in the supplement of paper PMC9170038.

Tested on: MS2 coat protein
Assay: apparent KD of MS2 coat protein; designed switch direction (-1 OFF switch, 1 ON switch): -1; higher = weaker reporter binding
Method in brief: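 Transcription of designed RNA switches on Illumina chips was done by stalled E. coli RNA polymerase. SNAP-549-labelled MS2 coat protein was then titrated in doubling steps from 0.7 or 1.5 nM to 3 µM, with steps of 0.8–1.5 h at the lowest and 10–20 min at the highest concentration. The per-design median over clusters of curve-fitted normalised fluorescence is reported as apparent KD.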

[1] = Eterna round: R95, input ligand: microRNA oligo, concentration not stated
[2] = input ligand: microRNA oligo, concentration not stated
[3] = Eterna round: R95, input ligand: FMN 200 uM
[4] = Eterna round: R95, input ligand: none

Sequence | apparent KD of MS2 coat protein [1] [µM] | apparent KD of MS2 coat protein (input ligand: FMN 200 uM) [µM] | apparent KD of MS2 coat protein (input ligand: none) [µM] | apparent KD of MS2 coat protein [2] [µM] | apparent KD of MS2 coat protein [3] [µM] | apparent KD of MS2 coat protein [4] [µM]
AGUCGGCGAGGAUAUACAUGAGGAUCACCCAUGUGAUAGAGUGCACGCGUACGUGUACGUAGAAGGCGCUGACA [Mat - Exclusion 3 - Mod of JL D95] (puzzle: Exclusion 3) | 0.0126 | – | – | – | – | –
AGUCGGUCAGGAUAUGCAAACGUAGACAUGAGGAUCACCCAUGUAACGUGGGCCUGGUUUGUAGAAGGGACGAGCA [EX5 #85] (Eterna round: R97, puzzle: Exclusion 5) | – | 0.0382 | 0.0282 | – | – | –
AGUCGGUCAGGAUAUGCAAUUGUGGACAUGAGGAUCACCCAUGUAACGUGGGCUUGGUUUGUAGAAGGGACGUGCA [EX5 #90] (Eterna round: R97, puzzle: Exclusion 5) | – | 0.378 | 0.626 | – | – | –
AGUCGGUCAGGAUAUGCAGACGUAGACAUGAGGAUCACCCAUGUAACGUGGGCCUGGUUUGUAGAAGGGACGAGCA [EX5 #84] (Eterna round: R97, puzzle: Exclusion 5) | – | 0.0479 | 0.0424 | – | – | –
AGUGCUGGCGCGUCGGUGUUGGUGCAAUAAGCUUGUGAAACAUGAGGAUCACCCAUGUCCUCAUAAGCUCGUCUUAU [salish99_TOv2_r2_085] (Eterna round: R96, puzzle: Sensor v3, turn-off variant 2) | – | 0.0149 | 0.0179 | 0.375 | – | –
AGUGCUGGCGCGUCGGUGUUGGUGCAAUAAGCUUGUGAAACAUGAGGAUCACCCAUGUCCUCAUAAGCUCGUCUUAU [salish99_TOv2_r2_085] (puzzle: Sensor v3, turn-off variant 2) | 0.732 | – | – | – | 0.0171 | 0.0158
AGUGGCCGAGGAUAUACAUGAGGAUCACCCAUGUUUUAUGUUGAAACGUUAGCGGCCUGUAGAAGGCGGACCUU [Eternabot (L2) Solution 76] (Eterna round: R97, puzzle: Exclusion 3) | – | 0.0175 | 0.0193 | – | – | –
AGUGUGUGGCAGGAUAUGCAAUUUAUAGGUGAAGCAGAAGGGUCUACAUGAGGAUCACCCAUGUGUGCGGUUGA [Ex6 #20] (Eterna round: R97, puzzle: Exclusion 6) | – | 0.6 | 0.188 | – | – | –
AGUGUGUGGCAGGAUAUGCGAUUUGUAAGUAUUGCAGAAGGGUCUACAUGAGGAUCACCCAUGUGUGCGGUUGA [Ex6 #25] (Eterna round: R97, puzzle: Exclusion 6) | – | 0.947 | 0.469 | – | – | –
AGUGUGUGGCAGGAUAUGCUAUUGAUUGGUGAAGCAGAAGGGUCUACAUGAGGAUCACCCAUGUAAGCGGUUGA [Ex6 #28] (Eterna round: R97, puzzle: Exclusion 6) | – | 0.327 | 0.0464 | – | – | –
AGUGUGUGGCAGGAUAUUCUAAUGAUUAGGAGGGAAGAAGGGUCUACAUGAGGAUCACCCAUGUAAGCGGUUGA [Ex6 #39] (Eterna round: R97, puzzle: Exclusion 6) | – | 0.135 | 0.0383 | – | – | –
AGUUAAGCAGGAUAUAUCCGGGAUAACAUGAGGAUCACCCAUGUGACCGCUUGAUAUCCUAUAGAAGGGCUUAAGA [Mod of ViennaUCT 25 - Jieux - Exclusion 5] (Eterna round: R97, puzzle: Exclusion 5) | – | 0.0682 | 0.0274 | – | – | –
AGUUACUACAAGCUUUGGGACAUGAGGAUCACCCAUGUUCGUCUUAUUGUAGUAGGUACGCUGACGUACCUACUACU [Mat - Sensor v3 - turn-off var 1 - JL Mod - D6] (puzzle: Sensor v3, turn-off variant 1) | 0.0428 | – | – | – | 0.0159 | 0.0145
AGUUCUAACACGUUGGUGUUAGUACCAUAAGCUUGUGAUACAUGAGGAUCACCCAUGUCCUCAUAAGCUCGUCUUAU [salish99_TOv2_r3_1001] (Eterna round: R96, puzzle: Sensor v3, turn-off variant 2) | – | 0.0252 | 0.0273 | 0.563 | – | –
AGUUCUAACACGUUGGUGUUAGUACCAUAAGCUUGUGAUACAUGAGGAUCACCCAUGUCCUCAUAAGCUCGUCUUAU [salish99_TOv2_r3_1001] (puzzle: Sensor v3, turn-off variant 2) | 0.4 | – | – | – | 0.0268 | 0.0219
AGUUGGCGAGGAUAUACAUGAGGAUCACCCAUGUGAAAUUAAAGUGAGUAAAUGAAAAGUAGAAGGCGCUGACA [Mod of Mat 21 - Jieux - Exclusion 3] (Eterna round: R97, puzzle: Exclusion 3) | – | 0.259 | 0.0403 | – | – | –
AGUUGGCGAGGAUAUACAUGAGGAUCACCCAUGUGAAUAAGAAUAGUGAGGAAGAAAAGUAGAAGGCGCUGACA [Mat - Exclusion 3 - Mod of Salish D36] (puzzle: Exclusion 3) | 0.0398 | – | – | – | 0.237 | 0.0445

Sequence | apparent KD of MS2 coat protein [1] [µM] | apparent KD of MS2 coat protein (input ligand: FMN 200 uM) [µM] | apparent KD of MS2 coat protein (input ligand: none) [µM] | apparent KD of MS2 coat protein [2] [µM] | apparent KD of MS2 coat protein [3] [µM] | apparent KD of MS2 coat protein [4] [µM]
AGUUGGCGAGGAUAUACAUGAGGAUCACCCAUGUGAGAGAAAAAAGUGAGGAAGAAAAGUAGAAGGCGCUGACA [salish99_ex3_r3_038] (puzzle: Exclusion 3) | 0.0483 | – | – | – | 0.318 | 0.0773
AGUUGGCGAGGAUAUACAUGAGGAUCACCCAUGUGAGAGAAUAAAGUGAGGAAGAAAAGUAGAAGGCGCUGACA [Mat - Exclusion 3 - Mod of Salish D9] (puzzle: Exclusion 3) | 0.0477 | – | – | – | – | –
AUAAAAGAAGUUAGGAUAUGGAAUCGUGGCAACGACCAGAAGGAACUUGAGGAUCACCCAAGUGAUUCUGAUCG [Atzaace] (Eterna round: R97, puzzle: Brourd's mod of Exclusion 4) | – | 0.0152 | 0.0141 | – | – | –
AUAAAUAAUGCAGGAUAUGUCGGCGAAAGGCCGGCAGAAGGGCAGCGUGGAUGUAUCCUGAACAUGAGGAUCACCCAUGUGAAA [Ederisbi] (Eterna round: R96, puzzle: Exclusion NG 1) | – | 0.209 | 0.347 | 0.168 | – | –
AUAAAUCAUGUAGGAUAUGCGUAGCGAAGCUAUGCAGAAGGACAUGAGGAUCACCCAUGUCUUUCCGUCUGCGUACAGACGGAA [Mat - Exclusion NG 1 - Mod of JL - D42] (Eterna round: R96, puzzle: Exclusion NG 1) | – | 0.149 | 0.0241 | 0.0201 | – | –
AUAAAUCAUGUAGGAUAUGCGUGGAGAAGCUAUGCAGAAGGACAUGAGGAUCACCCAUGUGCUUCCGUCUGCGUACAGACGGAA [Mat - Exclusion NG 1 - Mod of JL - D36] (Eterna round: R96, puzzle: Exclusion NG 1) | – | 0.038 | 0.131 | 0.0892 | – | –
AUAAAUCAUGUAGGAUAUGCGUGGCAAAGCUAUGCAGAAGGACAUGAGGAUCACCCAUGUGCUUCCGUCUGGGAACAGACGGUA [Mat - Exclusion NG 1 - Mod of JL - D34] (Eterna round: R96, puzzle: Exclusion NG 1) | – | 0.243 | 0.0849 | 0.0677 | – | –
AUAAGUAUAUAGGAUAUCUAGCUGGAAACAGCUAGAGAAGGAUGUACAUGAGGAUCACCCAUGUAAAUCUCAAU [Ex6/12-A3] (Eterna round: R97, puzzle: Exclusion 6) | – | 0.0163 | 0.0141 | – | – | –
AUAAGUAUAUAGGAUAUCUAGCUGGAUACAGCUAGAGAAGGAUGUACAUGAGGAUCACCCAUGUAAAUCUCAAU [Ex6/12-A1] (Eterna round: R97, puzzle: Exclusion 6) | – | 0.0187 | 0.0151 | – | – | –
AUAAGUGAUAAGGAUAUUACUAGCUGCGGCUAGUGAGAAGGUAUCACAUGAGGAUCACCCAUGUGUUCCAAUAA [Ex6/7-B3] (Eterna round: R97, puzzle: Exclusion 6) | – | 0.254 | 0.134 | – | – | –
AUAAUAUAUGUAGGAUAUCUGCACGAUUAGUGCAGAGAAGGACAUGAGGAUCACCCAUGUAAUUAAGAUCAAUUAUUAAAUUAU [ENG1/4-B1] (Eterna round: R96, puzzle: Exclusion NG 1) | – | 0.0843 | 0.0354 | 0.0246 | – | –
AUAAUGUAAGGAUAUCAGUCGACUAGCCUCGGCUAGUCGACUGAGAAGGUACAUGAGGAUCACCCAUGUGAUUA [E4/10-A2] (Eterna round: R97, puzzle: Exclusion 4) | – | 0.762 | 0.191 | – | – | –
AUAAUGUAAGGAUAUCAGUCGUACAGCCUCGGCUGUACGACUGAGAAGGUACAUGAGGAUCACCCAUGUGAUCA [E4/8-A2] (Eterna round: R97, puzzle: Exclusion 4) | – | 0.0984 | 1.2 | – | – | –
AUAAUGUAAGGAUAUCAGUCGUACAGCUUCGGCUGUACGACUGAGAAGGUACAUGAGGAUCACCCAUGUGGUCA [E4/9-A1] (Eterna round: R97, puzzle: Exclusion 4) | – | 0.0522 | 0.886 | – | – | –
AUAAUGUCAGGAUAUACUAAUGAUGAAUGAUUAGACAUUAUGUAGAAGGGACAUGAGGAUCACCCAUGUAAUAU [EX4 #2] (Eterna round: R97, puzzle: Exclusion 4) | – | 0.0399 | 0.0268 | – | – | –
AUAAUGUCAGGAUAUCAGUCGACUAGCUGCGGCUAGUCGACUGAGAAGGGACAUGAGGAUCACCCAUGUGUUUC [E4/14-A3] (Eterna round: R97, puzzle: Exclusion 4) | – | 0.475 | 0.367 | – | – | –
AUAAUGUGAGGAUAUCAGUCGACUAGCGAUAGCUAGUCGACUGAGAAGGCACAUGAGGAUCACCCAUGUGUUUC [E4/15-A4] (Eterna round: R97, puzzle: Exclusion 4) | – | 0.0444 | 0.0168 | – | – | –
